Experimental findings from article PMC7782850, “Metaxins are core components of mitochondrial transport adaptor complexes” (Nature Communications, 2021) are described below.

In one experiment the target is T1, His-MIRO-1 (C. elegans, UniProt Q94263 1-602).
T1 construct: C. elegans MIRO-1, residues 1-602; source: E. coli BL21 (DE3) codon plus, purified (Ni2+-Sepharose, size-exclusion chromatography)
T1 sequence (looked up): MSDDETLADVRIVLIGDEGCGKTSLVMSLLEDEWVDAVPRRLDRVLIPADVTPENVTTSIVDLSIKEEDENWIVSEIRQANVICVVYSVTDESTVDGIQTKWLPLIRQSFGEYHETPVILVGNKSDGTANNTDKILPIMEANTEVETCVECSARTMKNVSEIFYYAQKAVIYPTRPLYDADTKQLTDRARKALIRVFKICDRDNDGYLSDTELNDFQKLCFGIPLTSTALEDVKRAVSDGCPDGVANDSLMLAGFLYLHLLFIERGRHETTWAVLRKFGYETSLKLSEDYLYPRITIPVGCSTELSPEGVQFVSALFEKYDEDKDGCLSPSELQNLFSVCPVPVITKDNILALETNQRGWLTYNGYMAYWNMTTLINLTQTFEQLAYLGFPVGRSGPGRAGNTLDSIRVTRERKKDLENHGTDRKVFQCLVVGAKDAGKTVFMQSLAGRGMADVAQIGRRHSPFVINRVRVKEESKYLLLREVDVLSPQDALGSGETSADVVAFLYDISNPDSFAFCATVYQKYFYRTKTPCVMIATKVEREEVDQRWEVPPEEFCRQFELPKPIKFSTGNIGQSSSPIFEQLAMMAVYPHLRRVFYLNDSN
As to the kind of experiment: SEC; analytical gel filtration of purified proteins, Superdex-200 10/300, 25 mM HEPES pH 7.4, 100 mM NaCl, 1 mM DTT, 1 mM EDTA; fractions analysed by SDS-PAGE with Coomassie-blue staining. Particulars: both partners purified.

The next experiment has as its target T2, Trx-MTX-1 (C. elegans, UniProt O45503 1-281).
T2 construct: C. elegans MTX-1, residues 1-281
T2 sequence (looked up): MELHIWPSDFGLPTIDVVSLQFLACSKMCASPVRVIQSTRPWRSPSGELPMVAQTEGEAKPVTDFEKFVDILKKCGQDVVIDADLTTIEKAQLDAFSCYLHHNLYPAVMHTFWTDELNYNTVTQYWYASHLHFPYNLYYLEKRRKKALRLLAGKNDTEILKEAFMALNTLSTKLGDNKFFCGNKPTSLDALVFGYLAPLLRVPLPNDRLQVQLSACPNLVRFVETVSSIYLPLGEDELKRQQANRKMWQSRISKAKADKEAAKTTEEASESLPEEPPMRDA
Described as above. Particulars: both partners purified.

B1: MTX-1/2 complex (formed by co-expression of Trx-MTX-1 and Trx-MTX-2) (complex, C. elegans)
chain 1: MELHIWPSDFGLPTIDVVSLQFLACSKMCASPVRVIQSTRPWRSPSGELPMVAQTEGEAKPVTDFEKFVDILKKCGQDVVIDADLTTIEKAQLDAFSCYLHHNLYPAVMHTFWTDELNYNTVTQYWYASHLHFPYNLYYLEKRRKKALRLLAGKNDTEILKEAFMALNTLSTKLGDNKFFCGNKPTSLDALVFGYLAPLLRVPLPNDRLQVQLSACPNLVRFVETVSSIYLPLGEDELKRQQANRKMWQSRISKAKADKEAAKTTEEASESLPEEPPMRDA
chain 2: MSSSGVITQLVTDALSMNAAQDWEDVSLFTPYLNDQALMYDFADCLAVQTFLRMTSLPFNVRQRPNVDFISPDGVVPLLKINKTLITGFNAIVDFVHKKGVTLTSHLSETQVADMRANISMIEHLLTTVEKFVLWNHDETYDKVTKLRYGSVYHWPLSSVLPFVKRRKILEELSDKDWDTKTMDEVGEQADKVFRALSAQLGSQKYLTGDLPTEADALLFGHMYTLITVR
notes: C. elegans MTX-1, residues 1-281; C. elegans MTX-2, full length; Complex formed beforehand by co-expression of the two chains; also called MTX-1/MTX-2 complex; metaxin complex; source: E. coli BL21 (DE3) codon plus, co-expressed (pRSFDuet-1); in cell lysate (pull-down); purified (Ni2+-Sepharose, size-exclusion chromatography) for gel filtration
Regarding B1, the binding result in the experiment with His-MIRO-1 is recorded as “binds”.

B2: Trx-MTX-2 (natural protein, C. elegans, UniProt P34599 1-230, looked up)
chain: MSSSGVITQLVTDALSMNAAQDWEDVSLFTPYLNDQALMYDFADCLAVQTFLRMTSLPFNVRQRPNVDFISPDGVVPLLKINKTLITGFNAIVDFVHKKGVTLTSHLSETQVADMRANISMIEHLLTTVEKFVLWNHDETYDKVTKLRYGSVYHWPLSSVLPFVKRRKILEELSDKDWDTKTMDEVGEQADKVFRALSAQLGSQKYLTGDLPTEADALLFGHMYTLITVR
notes: C. elegans MTX-2, full length; source: E. coli BL21 (DE3) codon plus; in cell lysate (pull-down); purified (Ni2+-Sepharose, size-exclusion chromatography) for gel filtration
With B2, the binding result with Trx-MTX-1 and with His-MIRO-1 was “binds” in each case.
